From paper PMC9454918 come the findings set out here.

The experiment concerns the target recombinant goose FST protein (148-amino-acid peptide of goose follistatin, residues 93-240) (goose). Nature of the experiment: SDS-PAGE and Western blot; purified recombinant protein on an SDS-PAGE gel stained with Coomassie blue; Western blot with an anti-His tag antibody. In general terms: In western blotting, separated proteins are transferred to a membrane and probed.

What is called stoichiometry N is the number of molecules, sites or subunits per partner or assembly.

Regarding “recombinant goose FST protein (148-amino-acid peptide of goose follistatin, residues 93-240) (domain or fragment)”, the stoichiometry N is 2.
